Biological target: spMSP1D1 (MSP1D1 with SpyCatcher at the N-terminus and SpyTag at the C-terminus, circularized)
Test: cross-linking + other: fluorescence fluctuation spectroscopy; spMSPs in PC lipid nanodiscs (cNDs); cross-linking: cNDs 0.5 µM in PBS with EGS, room temperature 1 h, SDS-PAGE; fluctuation spectroscopy: molecular brightness of FITC-labeled spMSPs and cNDs (100 pM) in reconstitution buffer by photon counting histogram

stoichiometry N: 2
Substance: spMSP1D1 (MSP1D1 with SpyCatcher at the N-terminus and SpyTag at the C-terminus, circularized)

— article PMC8440770
